The numbers were not newly measured in PMC10027511, “Disordered proteins mitigate the temperature dependence of site-specific binding free energies” (The Journal of Biological Chemistry, 2023), which cites them from elsewhere.

In data set [1] the target is Sos site 4 peptide site 4 peptide (Drosophila melanogaster) (UniProt P26675). Put plainly: 19F NMR lineshape analysis, 25 °C.
The target is the same in data set [2]. Kind of data set: 19F NMR lineshape analysis, 45 °C.
Data set [3] shares this target. Kind of data set: 19F NMR lineshape analysis, 5 °C.
Data set [4] has the same target. Put plainly: 19F NMR lineshape analysis, 35 °C.
Data set [5] shares this target. Kind of data set: 19F NMR lineshape analysis, 15 °C.

The Kd is the constant that tells how readily two partners part at equilibrium. With “Drk N-terminal SH3 domain N-terminal SH3 (from UniProt Q08012)”, the Kd in data set [1] is 60 µM; in data set [2], 210 µM; in data set [3], 20 µM; in data set [4] it was 110 µM; in data set [5], 40 µM.
